Experimental data reported in patent US20220025032A1 (Novartis, published 2022).
Residue numbers refer to the chain shown, from its start.

Key:
Human BTC [1] = biological target: T1, Human BTC (human, UniProt P35070 32-111); assay: MSD-based inhibition of BTC binding to ErbB4
T1 construct: Soluble human BTC of the Biacore, ELISA, MSD and cell assays; also called human betacellulin; soluble human BTC
T1 sequence: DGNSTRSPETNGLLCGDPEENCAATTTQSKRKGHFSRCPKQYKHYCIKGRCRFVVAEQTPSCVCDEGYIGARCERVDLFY

Human BTC [2] = biological target: T1, Human BTC; assay: inhibition of BTC binding to ErbB1; y axis MSD units, x axis Fab (pM); blocked partner ErbB1
Human BTC-avitag-biotin = biological target: T2, Human BTC-avitag-biotin (human, UniProt P35070 32-111, biotin on the avitag); assay: flow cytometry, BTC-ErbB4 Cell Binding Inhibition: antibody pre-incubated with 15 nM human BTC-avitag-biotin, HKB11 cells over-expressing human ErbB4; y axis Percent Inhibition
T2 construct: also called biotin-BTC; soluble human BTC-avitag-biotin
T2 sequence: T1 sequence
Procedure: HKB11 over-expressing either ErbB1 or ErbB4 cells were plated 1×10⁵ cells/well. Cells were washed once with FACS buffer by spun down at 1200 rpm for 5 minutes and supernatant removed. Next, the Fab sample dilutions and BTC were prepared in FACS buffer. Human BTC-avitag-biotin was diluted to a fixed concentration of 15 nM. The test Fab samples were prepared at a starting concentration of 40 nM and titrated for 9 points at a serial dilution of 1:2. Both biotin-BTC and the test Fab samples are incubated for 30 minutes at room temperature. The pre-incubated samples were then added to the cell plate at 100 μl per well in duplicate and incubated for 1 hour on ice. The plate was then washed once in FACS buffer and spun down at 1200 rpm for 5 minutes and supernatant removed. […]
Measurements were performed on Attune Flow Cytometry machine. Data were analysed using the Flow Jo software. The live cell populations analysed were gated in forward and side scattering (FSC-A/SSC-A dot plot). The interval gate was established on the control histogram, which was obtained with sample incubated in streptavidin-Alexa Fluor488 only, and subsequently, determined percent of positive binding events of cells carrying membrane-bound receptor ErbB1 or ErbB4 and biotin-BTC. The median of fluorescence intensity (MFI) value was also derived for the live cell population. […]

[3] = biological target: T3, membrane-bound human BTC on 293F-hBTC cells (human, UniProt P35070 32-111); assay: flow cytometry, 293F cells with BTC against 293F
T3 construct: the transfected construct is not described; also called membrane-anchored BTC
T3 sequence: T1 sequence

Human BTC [4] = biological target: T1, Human BTC; assay: cell-based inhibition of BTC binding to ErbB4
Human BTC [5] = biological target: T1, Human BTC; assay: cell-based or functional assay
[6] = biological target: T3, membrane-bound human BTC on 293F-hBTC …; assay: cell-based or functional assay
Human BTC [7] = biological target: T1, Human BTC; assay: inhibition of BTC binding to ErbB4; y axis MSD units, x axis Antibody concentration (pM); blocked partner ErbB4
Human VEGF165 = biological target: T4, Human VEGF165 (human, UniProt P15692 27-191); assay: competition ELISA: antibody pre-incubated with VEGF-biotin, added to coated VEGFR2
T4 construct: mature; biotinylated in the VEGFR2 ELISAs; also called human VEGF-A; VEGF-A
Procedure: The plates were then washed 3 times using 1λTBST. The plates were blocked in 2% BSA diluent (0.1% Tween 20/0.1% TirtonX100) overnight. After blocking, the plates were washed 3 times using TB ST and then the sample mixture was added at 20 μl/well. The sample mixture consisted a final fixed concentration of VEGF-biotin (in-house) at 400 pM and a 15 point 1:2 serial dilution of the antibody starting at 20 nM. The sample mixture was pre-incubated for 1 hour prior to adding to the plate and then incubated for another hour at room temperature on the plate. Afterwards, the plate was washed 3 times using TBST and 20 μl/well of Streptavidin-HRP diluted at 1:5000 was added for an incubation time of 1 hour. The plates were washed 3 times in TBST and then 20 μl/well of TMB substrate was added. TMB is a chromogen that yields a blue color when oxidized. TMB was incubated for 10 minutes until the signal saturated in the no antibody samples, and then 10 μl/well of 2N sulfuric acid was added which then changes the blue color to yellow and this now has a maximum absorbance at 450 nm.

Cyno BTC = biological target: T5, Cyno BTC (cynomolgus, UniProt A0A2K5X5E5 32-111); assay: SPR (Biacore/ProteOn)
T5 construct: also called cynomolgus BTC
T5 sequence: T1 sequence with E19D, A56T

Human BTC [8] = biological target: T1, Human BTC; assay: SPR Biacore T200, anti-Fab capture, antigen as analyte
[9] = biological target: T3, membrane-bound human BTC on 293F-hBTC …; assay: flow cytometry on 293F cells with membrane-bound human BTC, anti-human Fab detection; y axis Percent Positive Binding, x axis Antibody concentration (nM)
Procedure: After washing the cells, the cells were dissociated using Versene at 37° C. The cells were washed with FACS buffer and plated at 100 μl in a 96 well plate using cells at 1×10⁶ cells/ml. Then 100 μl of a serial dilution of antibodies starting at 50 nM was used. The cells were incubated, washed and then treated with the secondary anti-human Fab-FITC antibody. The antibodies only bound to the cells expressing BTC. After which the cells were washed and analyzed on the Attune Flow Cytometry. All data analysis was carried out using Flow Jo software.
In FIG. 6A, Flow cytometry was used to assess the binding of NVS11 to membrane-bound BTC using an anti-human Fab antibody for detection.

T4 sequence (P15692 other isoform, or with tags, fused parts or gaps): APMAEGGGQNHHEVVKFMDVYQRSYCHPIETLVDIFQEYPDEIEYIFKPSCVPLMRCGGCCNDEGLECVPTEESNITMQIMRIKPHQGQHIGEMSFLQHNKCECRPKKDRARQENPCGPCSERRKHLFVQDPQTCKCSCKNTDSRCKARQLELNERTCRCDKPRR

- MSD-based binding inhibition BTC/ErbB4 (Human BTC [1]): > 90%
- IC50 (Human BTC [2]): 0.301 nM
- IC50 (Human BTC-avitag-biotin): 7.4 nM
- Binding to membrane-anchored BTC (median, X above 293F) [3]: > 10 X above 293F
- Cell-based binding inhibition BTC/ErbB4 (Human BTC [4]): > 90%
- A431 pERK (IC50 in nM) (Human BTC [5]): 0.25 nM
- ADR/Res pErbB3 (IC50 in nM) (Human BTC [5]): 5.7 nM
- inhibition (Human BTC [5]): 99.7%
- Neutralization of juxtacrine signaling [6]: 89%
- IC50 (Human BTC [7]): 0.591 nM
- binding result (Human VEGF165): no binding (tested: 20000 pM)
- Kd (Cyno BTC): 0.008 nM
- Kd (Human BTC [8]): 0.0017 nM
- EC50 [9]: 0.133 nM
B1: NVS1 (Fab, V domains shown)
VH: QVQLVQSGAEVKKPGSSVKVSCKASGGTFSSYAISWVRQAPGQGLEWMGGIVPWMGEAVYAQKFQGRVTITADESTSTAYMELSSLRSEDTAVYYCARSSSTYGIHAFDYWGQGTLVTVSS
VL: DIQMTQSPSSLSASVGDRVTITCRASQSISNFLNWYQQKPGKAPKLLIYAASNLQSGVPSRFSGSGSGTDFTLTISSLQPEDFATYYCQQYDDFPMTFGQGTKVEIKR
notes: also called Fab NVS1; NVS1 Fab
